Source: patent US20140147444A1 (published 2014)

B1: “AT” antibody variant N98F (heavy chain CDR3) (antibody, name in Kabat numbering, V domains shown)
VH: QVQLVQSGAEVRKPGASVKVSCKASGYDFSNYAIHWVRQAPGQRLEWMGWINAGNGNTKFSQKFQGRITVTRDTAASTAYMELRSLRSEDTAVYYCARDSSFMVRGIIIAYYFDYWGQGTLVTVSS
VL: EIVMTQSPSSLSASVGDRVTITCRASQSISRYLNWYQLKPGKAPRLLIYGASSLQSGVPSRFSGSGSGAEFTLTISSLQPEDIATYYCQHTRAFGQGTKVEIKR
notes: not shown: human IgG1 CH1, hinge, CH2 and CH3
B2: “AT” antibody variant N98P (heavy chain CDR3) (antibody, name in Kabat numbering, V domains shown)
VH: QVQLVQSGAEVRKPGASVKVSCKASGYDFSNYAIHWVRQAPGQRLEWMGWINAGNGNTKFSQKFQGRITVTRDTAASTAYMELRSLRSEDTAVYYCARDSSPMVRGIIIAYYFDYWGQGTLVTVSS
VL: EIVMTQSPSSLSASVGDRVTITCRASQSISRYLNWYQLKPGKAPRLLIYGASSLQSGVPSRFSGSGSGAEFTLTISSLQPEDIATYYCQHTRAFGQGTKVEIKR
notes: as for B1
B3: “AT” antibody variant N98Q (heavy chain CDR3) (antibody, name in Kabat numbering, V domains shown)
VH: QVQLVQSGAEVRKPGASVKVSCKASGYDFSNYAIHWVRQAPGQRLEWMGWINAGNGNTKFSQKFQGRITVTRDTAASTAYMELRSLRSEDTAVYYCARDSSQMVRGIIIAYYFDYWGQGTLVTVSS
VL: EIVMTQSPSSLSASVGDRVTITCRASQSISRYLNWYQLKPGKAPRLLIYGASSLQSGVPSRFSGSGSGAEFTLTISSLQPEDIATYYCQHTRAFGQGTKVEIKR
notes: as for B1
B4: “AT” antibody variant N98I (heavy chain CDR3) (antibody, name in Kabat numbering, V domains shown)
VH: QVQLVQSGAEVRKPGASVKVSCKASGYDFSNYAIHWVRQAPGQRLEWMGWINAGNGNTKFSQKFQGRITVTRDTAASTAYMELRSLRSEDTAVYYCARDSSIMVRGIIIAYYFDYWGQGTLVTVSS
VL: EIVMTQSPSSLSASVGDRVTITCRASQSISRYLNWYQLKPGKAPRLLIYGASSLQSGVPSRFSGSGSGAEFTLTISSLQPEDIATYYCQHTRAFGQGTKVEIKR
notes: as for B1
B5: “AT” antibody variant N98W (heavy chain CDR3) (antibody, name in Kabat numbering, V domains shown)
VH: QVQLVQSGAEVRKPGASVKVSCKASGYDFSNYAIHWVRQAPGQRLEWMGWINAGNGNTKFSQKFQGRITVTRDTAASTAYMELRSLRSEDTAVYYCARDSSWMVRGIIIAYYFDYWGQGTLVTVSS
VL: EIVMTQSPSSLSASVGDRVTITCRASQSISRYLNWYQLKPGKAPRLLIYGASSLQSGVPSRFSGSGSGAEFTLTISSLQPEDIATYYCQHTRAFGQGTKVEIKR
notes: as for B1
B6: “AT” antibody variant N98H (heavy chain CDR3) (antibody, name in Kabat numbering, V domains shown)
VH: QVQLVQSGAEVRKPGASVKVSCKASGYDFSNYAIHWVRQAPGQRLEWMGWINAGNGNTKFSQKFQGRITVTRDTAASTAYMELRSLRSEDTAVYYCARDSSHMVRGIIIAYYFDYWGQGTLVTVSS
VL: EIVMTQSPSSLSASVGDRVTITCRASQSISRYLNWYQLKPGKAPRLLIYGASSLQSGVPSRFSGSGSGAEFTLTISSLQPEDIATYYCQHTRAFGQGTKVEIKR
notes: as for B1
B7: “AT” antibody variant N98G (heavy chain CDR3) (antibody, name in Kabat numbering, V domains shown)
VH: QVQLVQSGAEVRKPGASVKVSCKASGYDFSNYAIHWVRQAPGQRLEWMGWINAGNGNTKFSQKFQGRITVTRDTAASTAYMELRSLRSEDTAVYYCARDSSGMVRGIIIAYYFDYWGQGTLVTVSS
VL: EIVMTQSPSSLSASVGDRVTITCRASQSISRYLNWYQLKPGKAPRLLIYGASSLQSGVPSRFSGSGSGAEFTLTISSLQPEDIATYYCQHTRAFGQGTKVEIKR
notes: as for B1
B8: “AT” antibody variant N98Y (heavy chain CDR3) (antibody, name in Kabat numbering, V domains shown)
VH: QVQLVQSGAEVRKPGASVKVSCKASGYDFSNYAIHWVRQAPGQRLEWMGWINAGNGNTKFSQKFQGRITVTRDTAASTAYMELRSLRSEDTAVYYCARDSSYMVRGIIIAYYFDYWGQGTLVTVSS
VL: EIVMTQSPSSLSASVGDRVTITCRASQSISRYLNWYQLKPGKAPRLLIYGASSLQSGVPSRFSGSGSGAEFTLTISSLQPEDIATYYCQHTRAFGQGTKVEIKR
notes: as for B1
B9: “AT” antibody variant N98V (heavy chain CDR3) (antibody, name in Kabat numbering, V domains shown)
VH: QVQLVQSGAEVRKPGASVKVSCKASGYDFSNYAIHWVRQAPGQRLEWMGWINAGNGNTKFSQKFQGRITVTRDTAASTAYMELRSLRSEDTAVYYCARDSSVMVRGIIIAYYFDYWGQGTLVTVSS
VL: EIVMTQSPSSLSASVGDRVTITCRASQSISRYLNWYQLKPGKAPRLLIYGASSLQSGVPSRFSGSGSGAEFTLTISSLQPEDIATYYCQHTRAFGQGTKVEIKR
notes: as for B1
B10: “AT” antibody variant N98L (heavy chain CDR3) (antibody, name in Kabat numbering, V domains shown)
VH: QVQLVQSGAEVRKPGASVKVSCKASGYDFSNYAIHWVRQAPGQRLEWMGWINAGNGNTKFSQKFQGRITVTRDTAASTAYMELRSLRSEDTAVYYCARDSSLMVRGIIIAYYFDYWGQGTLVTVSS
VL: EIVMTQSPSSLSASVGDRVTITCRASQSISRYLNWYQLKPGKAPRLLIYGASSLQSGVPSRFSGSGSGAEFTLTISSLQPEDIATYYCQHTRAFGQGTKVEIKR
notes: as for B1
B11: “AT” antibody variant N98M (heavy chain CDR3) (antibody, name in Kabat numbering, V domains shown)
VH: QVQLVQSGAEVRKPGASVKVSCKASGYDFSNYAIHWVRQAPGQRLEWMGWINAGNGNTKFSQKFQGRITVTRDTAASTAYMELRSLRSEDTAVYYCARDSSMMVRGIIIAYYFDYWGQGTLVTVSS
VL: EIVMTQSPSSLSASVGDRVTITCRASQSISRYLNWYQLKPGKAPRLLIYGASSLQSGVPSRFSGSGSGAEFTLTISSLQPEDIATYYCQHTRAFGQGTKVEIKR
notes: as for B1
B12: “AT” antibody variant N98R (heavy chain CDR3) (antibody, name in Kabat numbering, V domains shown)
VH: QVQLVQSGAEVRKPGASVKVSCKASGYDFSNYAIHWVRQAPGQRLEWMGWINAGNGNTKFSQKFQGRITVTRDTAASTAYMELRSLRSEDTAVYYCARDSSRMVRGIIIAYYFDYWGQGTLVTVSS
VL: EIVMTQSPSSLSASVGDRVTITCRASQSISRYLNWYQLKPGKAPRLLIYGASSLQSGVPSRFSGSGSGAEFTLTISSLQPEDIATYYCQHTRAFGQGTKVEIKR
notes: as for B1
B13: “AT” antibody variant N98S (heavy chain CDR3) (antibody, name in Kabat numbering, V domains shown)
VH: QVQLVQSGAEVRKPGASVKVSCKASGYDFSNYAIHWVRQAPGQRLEWMGWINAGNGNTKFSQKFQGRITVTRDTAASTAYMELRSLRSEDTAVYYCARDSSSMVRGIIIAYYFDYWGQGTLVTVSS
VL: EIVMTQSPSSLSASVGDRVTITCRASQSISRYLNWYQLKPGKAPRLLIYGASSLQSGVPSRFSGSGSGAEFTLTISSLQPEDIATYYCQHTRAFGQGTKVEIKR
notes: as for B1
B14: “AT” antibody variant N98K (heavy chain CDR3) (antibody, name in Kabat numbering, V domains shown)
VH: QVQLVQSGAEVRKPGASVKVSCKASGYDFSNYAIHWVRQAPGQRLEWMGWINAGNGNTKFSQKFQGRITVTRDTAASTAYMELRSLRSEDTAVYYCARDSSKMVRGIIIAYYFDYWGQGTLVTVSS
VL: EIVMTQSPSSLSASVGDRVTITCRASQSISRYLNWYQLKPGKAPRLLIYGASSLQSGVPSRFSGSGSGAEFTLTISSLQPEDIATYYCQHTRAFGQGTKVEIKR
notes: as for B1
B15: “AT” antibody variant S97H (heavy chain CDR3) (antibody, name in Kabat numbering, V domains shown)
VH: QVQLVQSGAEVRKPGASVKVSCKASGYDFSNYAIHWVRQAPGQRLEWMGWINAGNGNTKFSQKFQGRITVTRDTAASTAYMELRSLRSEDTAVYYCARDSHNMVRGIIIAYYFDYWGQGTLVTVSS
VL: EIVMTQSPSSLSASVGDRVTITCRASQSISRYLNWYQLKPGKAPRLLIYGASSLQSGVPSRFSGSGSGAEFTLTISSLQPEDIATYYCQHTRAFGQGTKVEIKR
notes: as for B1
B16: “AT” antibody variant S97G (heavy chain CDR3) (antibody, name in Kabat numbering, V domains shown)
VH: QVQLVQSGAEVRKPGASVKVSCKASGYDFSNYAIHWVRQAPGQRLEWMGWINAGNGNTKFSQKFQGRITVTRDTAASTAYMELRSLRSEDTAVYYCARDSGNMVRGIIIAYYFDYWGQGTLVTVSS
VL: EIVMTQSPSSLSASVGDRVTITCRASQSISRYLNWYQLKPGKAPRLLIYGASSLQSGVPSRFSGSGSGAEFTLTISSLQPEDIATYYCQHTRAFGQGTKVEIKR
notes: as for B1
B17: “AT” antibody variant S97D (heavy chain CDR3) (antibody, name in Kabat numbering, V domains shown)
VH: QVQLVQSGAEVRKPGASVKVSCKASGYDFSNYAIHWVRQAPGQRLEWMGWINAGNGNTKFSQKFQGRITVTRDTAASTAYMELRSLRSEDTAVYYCARDSDNMVRGIIIAYYFDYWGQGTLVTVSS
VL: EIVMTQSPSSLSASVGDRVTITCRASQSISRYLNWYQLKPGKAPRLLIYGASSLQSGVPSRFSGSGSGAEFTLTISSLQPEDIATYYCQHTRAFGQGTKVEIKR
notes: as for B1
B18: “AT” antibody variant S97F (heavy chain CDR3) (antibody, name in Kabat numbering, V domains shown)
VH: QVQLVQSGAEVRKPGASVKVSCKASGYDFSNYAIHWVRQAPGQRLEWMGWINAGNGNTKFSQKFQGRITVTRDTAASTAYMELRSLRSEDTAVYYCARDSFNMVRGIIIAYYFDYWGQGTLVTVSS
VL: EIVMTQSPSSLSASVGDRVTITCRASQSISRYLNWYQLKPGKAPRLLIYGASSLQSGVPSRFSGSGSGAEFTLTISSLQPEDIATYYCQHTRAFGQGTKVEIKR
notes: as for B1
B19: “AT” antibody variant S97E (heavy chain CDR3) (antibody, name in Kabat numbering, V domains shown)
VH: QVQLVQSGAEVRKPGASVKVSCKASGYDFSNYAIHWVRQAPGQRLEWMGWINAGNGNTKFSQKFQGRITVTRDTAASTAYMELRSLRSEDTAVYYCARDSENMVRGIIIAYYFDYWGQGTLVTVSS
VL: EIVMTQSPSSLSASVGDRVTITCRASQSISRYLNWYQLKPGKAPRLLIYGASSLQSGVPSRFSGSGSGAEFTLTISSLQPEDIATYYCQHTRAFGQGTKVEIKR
notes: as for B1

The binders below were run against T1, human OPGbp [143-317] (human, UniProt O14788 143-317) (assay: SPR (BIAcore), immobilized OPGbp [143-317]).
T1 construct: also called OPGL
T1 sequence (looked up): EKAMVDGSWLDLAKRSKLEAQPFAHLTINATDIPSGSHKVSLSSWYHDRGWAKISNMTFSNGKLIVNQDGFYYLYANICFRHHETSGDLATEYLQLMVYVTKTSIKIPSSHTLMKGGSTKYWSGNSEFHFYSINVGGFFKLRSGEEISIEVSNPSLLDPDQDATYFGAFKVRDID

Point of comparison: B1, Kd 26600 nM. Against it:
- B2 — 24000-fold lower, 1.13 nM
- B3 — 33000-fold lower, 0.81 nM
- B4 — 3500-fold lower, 7.6 nM
- B5 — 9100-fold lower, 2.93 nM
- B6 — 25000-fold lower, 1.06 nM
- B7 — 1100-fold lower, 24.3 nM
- B8 — 640-fold lower, 41.3 nM
- B9 — 62000-fold lower, 0.43 nM
- B10 — 32000-fold lower, 0.82 nM
- B11 — 970-fold lower, 27.5 nM
- B12 — 89000-fold lower, 0.3 nM
- B13 — 46000-fold lower, 0.58 nM

Point of comparison: B12, koff 0.00108 s⁻¹. Against it:
- B1 — 92-fold higher, 0.099 s⁻¹
- B2 — 1.6-fold higher, 0.00171 s⁻¹
- B3 — within 1.5-fold, 0.00151 s⁻¹
- B4 — 4-fold higher, 0.00436 s⁻¹
- B5 — 7.1-fold higher, 0.00768 s⁻¹
- B6 — 2.2-fold higher, 0.00234 s⁻¹
- B7 — 5.2-fold higher, 0.00559 s⁻¹
- B8 — 10-fold higher, 0.0112 s⁻¹
- B9 — 5.5-fold lower, 0.000197 s⁻¹
- B10 — within 1.5-fold, 0.00122 s⁻¹
- B11 — 75-fold higher, 0.0814 s⁻¹
- B13 — within 1.5-fold, 0.00154 s⁻¹

Point of comparison: B13, kon 2.67e+06 M⁻¹ s⁻¹. Against it:
- B1 — 720-fold lower, 3700 M⁻¹ s⁻¹
- B2 — 1.8-fold lower, 1.51e+06 M⁻¹ s⁻¹
- B3 — within 1.5-fold, 1.86e+06 M⁻¹ s⁻¹
- B4 — 4.7-fold lower, 568000 M⁻¹ s⁻¹
- B5 — within 1.5-fold, 2.62e+06 M⁻¹ s⁻¹
- B6 — within 1.5-fold, 2.2e+06 M⁻¹ s⁻¹
- B7 — 12-fold lower, 230000 M⁻¹ s⁻¹
- B8 — 9.8-fold lower, 272000 M⁻¹ s⁻¹
- B9 — 5.9-fold lower, 456000 M⁻¹ s⁻¹
- B10 — 1.8-fold lower, 1.48e+06 M⁻¹ s⁻¹
- B11 — within 1.5-fold, 2.96e+06 M⁻¹ s⁻¹
- B12 — within 1.5-fold, 3.59e+06 M⁻¹ s⁻¹

B14: no binding.

Biological target: T1, human OPGbp [143-317]
Assay: SPR (BIAcore), immobilized OPGbp [143-317]
Remark: another data set of the same source

Point of comparison: B19, Kd 1940 nM. Against it:
- B15 — 650-fold lower, 3 nM

B15 showed a koff of 0.00248 s⁻¹.

Binder B15 has a kon of 839000 M⁻¹ s⁻¹.

B16: no binding.
B17: no binding.
B18: no binding.
